{"source": "patent US20230030950A1", "about": "(UNIVERSITY OF QUEENSLAND, published 2023)", "binders": {"B1": {"name": "6E10 antibody (antibody, V domains shown)", "VH": "EVQLQQSGAELVKPGASVKLCTASGFNIKDTYIHWVKQRPEQGLEWIGRFDPVNVNTRYDSRFRGKATITSDASSNTAYLHLNSLTSEDTAVYYCSRSYYNGRRRFTYWGQGTLVTVSA", "VL": "DIVMTQSPSSLTVTAGEKVALTCKASQSLLSSGNQKNYLTWYQQKPGQPPKLLIYWASIRESGVPDRFTGSGSGTFFTLTISSVQAEDLAVYYCQNDYNYPFTFGSGTKLEIK"}}, "target": "T1, Aβ1-42 fibrils (UniProt P05067 672-713)", "T1 construct": "domain: Aβ1-42; Aggregated (fibrillar) form coated on the ELISA plate; also called fibrillar amyloid-β42; fibrillar Aβ42", "T1 sequence (P05067 672-713 limits assumed)": "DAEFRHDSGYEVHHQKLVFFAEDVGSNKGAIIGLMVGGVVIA", "experiment": "direct-binding ELISA; plate coated with Aβ1-42 fibrils, serial dilutions of antibody, anti-mouse HRP detection", "procedure": "A131-42 fibrils were generated by incubating 0.1 mM A131-42 (JPT Peptide Technologies, Germany) in 10 mM HCl for 3 d at 37° C. A MaxiSorp ELISA plate was coated with […] Aβ₁₋₄₂ fibrils in 0.1M sodium bicarbonate buffer and then blocked with 1% bovine serum albumin."}
{"binder": "B1", "values": [{"measurement": "EC50", "result": 1.18, "unit": "nM"}]}
